Assay: soluble on expression in E. coli; label from the status in PepcDB or PDB records

Sequence | soluble on expression in E. coli
MNEIQKYIAANEPKIMEDLFSLIRIPSISALPEHHDDMLACAQRWAQLLLEAGVDEALVMPSKGNPIVFAQKIVDPNAKTVLVYAHYDVMPAEPLELWKSQPFEPEVRDGYIWARGADDDKGQSFIQVKAFEYLVKNELLKNNVKFIFEGEEEIGSPSLEAFCEEHKELLKADVILVSDTSMLGAELPSLTTGLRGLAYWEIEVTGPNRDLHSGHFGGAVANPINVLCEIISKVTDKDGRITVPGFYDDVEEVPQAEREMIAHIPFDEKKYKEAIGVKELFGEKGYSTLERNSCRPSFDVCGIWGGYTGEGSKTVLPSKAYAKVSCRLVAHQDHHKISQMFADYILQMAPDTVQVKVTPMHGGQGYVCPISLPAYQAAEKGFEIAFGKKPLAVRRGGSIPIISTFEQVLGTKTVLMGFGLESDAIHSPNENFSLDIFRKGIEAVIEFHQEYAKR | not soluble
MDSGDFSPMQSNFSLGFMSFEDIPEDARTTEMIDKIVFEEDKEYDHTQDSFRYGRVTTGVSYNLVTGKIPKTVFEQVKAKDDENDNVEFEMEHLEDKETAHKTQTFDELYESQMPKYFDYQSNFSDVNGIWTLLFDQNHYEKMSTFELQAAICAALNSKHFMMICVGIDAFNAVTGVEMSAKDRVVFRMALTRAVAGEFQPPLVKVAPKQLTGVSPMKRDISEVTSSIDVLFVPVIGVTDEVENNRFLIVVRVKGT | not soluble
MSIQKLLSKARKAIQDFDMIQENDKIAVGLSGGKDSLTLLHILKSYQRFSPQNFELIAITLNTGGVDNSPLDKLCKEINVPFYEFQTDIKEIVFDIRQEKNPCALCANLRRGALNDNAKKLGCNKVALGHHKDDAIETFLMSMFYEGRVNCFSPKTYLDRQDLTVIRPMVYIEEYMTKKISKDSNYPIITNPCPANGHTRREYIKNLIANLNKEMPDFKRNVFGALNNSEKLFIWDKEKIKNFK | not soluble
MNKEMTLLPPPELVQYVGGDFKKVGKEFLKHFIQIGALKSNEKVLDVGCGVGRMAVPLMNYLNDDGAYYGFDLFKDGITWCQNNISTMRNNFHFEHVDIYNQFYNPEGKEDASQYRFPYEDGTFDFIFLTSVFTHLLPKELEHYVSEIVRVLKKDGRCFITFFLINPESSYYLNAGQSTLGFYHRIENCYVVNKDIPNFAVAYPETDICNLLNKYGLEIINKPHYGLWCGRHEYTSYQDIVLTKKSLEHHHHHH | not soluble
GPLGSAGKSSLFKIILLGDGGVGKSSLMNRYVTNKFDSQLFHTIGVEFLNKDLEVDGHFVTMQIWDTAGQERFRSLRTPFYRGSDCCLLTFSVDDSQSFQNLSNWKKEFIYYADVKEPESFPFVILGNKTDIKERQVSTEEAQAWCKDNGDYPYFETSAKDSTNVAAAFEEAVRRILAT | soluble
AKMLGLDFVAVVPRSTSGAKIALIEAQGGRCHFIDRPPEIYSEARRLAAETNGHFMDQFTHAERATDWRGNNNIAESIYHQMIREEHPVPEWLVMSAGTGGTSATLGRYIRYRRHATRLLVVDPENSAFFGGYDSNSCDYATGMPSRIEGIGRPRVEPSFVGQVIDRMMRVPDAASIATARHASSVLGRRVGGSTGTNLWGAFAVVAEMLAAGRSGSVVTILCDGGERYADTYFDDDWVAGEGIDLTGPAAVLDRFA | not soluble
MGSDKIHHHHHHVPDITIATERCIGCAECARDCPTGIIRMENGIPAVAPRREKRCIGCLHCVTVCPCGALSFRGVTPESCTPLKNRFPQPEALEILMKGRRSVRRFLPEAVDSALIRRTVDAAAHAPSGKNQRGLLFTVVDDPQTMNRLRHDTVEAVREALADGCSHPQTAFFQAALARWDTGTDIIFRNAPHLLWVTAPRTNTTAQADVHVALTYFELMAAACGLGTLWCGFATWAMSEIAPRIARGLGIPEAHTSGYVMLFGKPAVRYHRTAERGCDGFNRVVWPPAT | not soluble
MAHHHHHHMPSSSKKQNVVTFSEVHDPLYGMLSPLSPSPLVVRHVQYPSLHHYFLCERFKGSPAEQWMAEATTVWSLERLVKTAEEEGYQRHNWNKVKVDVMLLGTYFKFKQNEAARAVLLSTQPSLLLYHTPTDDFWGDGGDGKGKNVLGVVSMAVRARLHSEEERQKQRPPASGRHSKSAAAKSPALPATRT | soluble
MSLRIRVPATTANLGPGFDSCGLALTLYLTLDIGAEADSWYIEHNIGGGIPHDETNVIIETALNLAPNLTPHHLVMTCDIPPARGLGSSSAAVVAGIELANTLAELNLSKEEKVRIAAEIEGHPDNVAPAVLGNWVVGAKLDGEDFYVRHLFPDCALIAFIPKAELLTSESRGVLPDTLPFKEAVQASSIANVMIAAILRNDMTLAGEMMERDLWHEKYRSQLVPHLAQIRDVAKNQGAYAACLSGAGPTVLVFAPRNLANKLQTSLQTLEIDADVLLLDVEGSGAEVFREGHHHHHH | soluble
